Assay results taken from ChEMBL document CHEMBL5678797, “AZD7762, a novel checkpoint kinase inhibitor, drives checkpoint abrogation and potentiates DNA-targeted therapies” (Mol Cancer Ther, 2008).

Substrate: NC(=O)Nc1cc(-c2cccc(F)c2)sc1C(=O)N[C@H]1CCCNC1
Settings: Homo sapiens; Insect cell; time 20.0 min

B1: Serine/threonine-protein kinase Chk1 (Homo sapiens), O14757 (protein)
chain: MAVPFVEDWDLVQTLGEGAYGEVQLAVNRVTEEAVAVKIVDMKRAVDCPENIKKEICINKMLNHENVVKFYGHRREGNIQYLFLEYCSGGELFDRIEPDIGMPEPDAQRFFHQLMAGVVYLHGIGITHRDIKPENLLLDERDNLKISDFGLATVFRYNNRERLLNKMCGTLPYVAPELLKRREFHAEPVDVWSCGIVLTAMLAGELPWDQPSDSCQEYSDWKEKKTYLNPWKKIDSAPLALLHKILVENPSARITIPDIKKDRWYNKPLKKGAKRPRVTSGGVSESPSGFSKHIQSNLDFSPVNSASSEENVKYSSSQPEPRTGLSLWDTSPSYIDKLVQGISFSQPTCPDHMLLNSQLLGTPGSSQNPWQRLVKRMTRFFTKLDADKSYQCLKETCEKLGYQWKKSCMNQVTISTTDRRNNKLIFKVNLLEMDDKILVDFRLSKGDGLEFKRHFLKIKGKLIDIVSSQKIWLPAT
Km: 80 µM
